For 2 substances, Kd and koff results are on record in paper PMC11055898.

Among the targets are human FcRn; mouse CD16-2; mouse CD64.
Holding throughout (assay): SPR
Assay [1] addresses human CD64 (FcgRI) (human) (UniProt P12314).
The target of assay [2] is mouse neonatal Fc receptor (FcRn) (mouse) (UniProt Q61559).
mouse neonatal Fc receptor (FcRn) (mouse), sequence (Q61559 22-297): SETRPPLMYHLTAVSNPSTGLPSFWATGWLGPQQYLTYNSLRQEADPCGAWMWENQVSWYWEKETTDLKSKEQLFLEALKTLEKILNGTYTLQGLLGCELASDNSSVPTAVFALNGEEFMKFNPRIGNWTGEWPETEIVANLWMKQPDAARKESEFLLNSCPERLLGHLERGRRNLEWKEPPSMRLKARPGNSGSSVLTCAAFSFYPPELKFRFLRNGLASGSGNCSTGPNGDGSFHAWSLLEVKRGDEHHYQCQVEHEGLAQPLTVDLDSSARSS

human CD64 (FcgRI) (human), sequence (P12314 16-374): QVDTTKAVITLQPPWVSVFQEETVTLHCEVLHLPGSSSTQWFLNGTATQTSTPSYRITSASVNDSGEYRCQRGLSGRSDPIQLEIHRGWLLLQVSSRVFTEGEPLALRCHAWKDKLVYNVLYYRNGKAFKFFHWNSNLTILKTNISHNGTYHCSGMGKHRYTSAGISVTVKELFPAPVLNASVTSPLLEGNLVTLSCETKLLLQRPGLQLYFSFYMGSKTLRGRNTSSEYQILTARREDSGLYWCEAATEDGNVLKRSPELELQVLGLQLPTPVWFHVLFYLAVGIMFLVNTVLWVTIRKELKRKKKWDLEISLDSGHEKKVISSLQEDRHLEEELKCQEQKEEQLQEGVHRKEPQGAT
human IgG3 (antibody specific for the receptor binding domain of SARS-CoV-2, clone not named), sequence (P01860 whole entry, looked up, the tested form may be a part): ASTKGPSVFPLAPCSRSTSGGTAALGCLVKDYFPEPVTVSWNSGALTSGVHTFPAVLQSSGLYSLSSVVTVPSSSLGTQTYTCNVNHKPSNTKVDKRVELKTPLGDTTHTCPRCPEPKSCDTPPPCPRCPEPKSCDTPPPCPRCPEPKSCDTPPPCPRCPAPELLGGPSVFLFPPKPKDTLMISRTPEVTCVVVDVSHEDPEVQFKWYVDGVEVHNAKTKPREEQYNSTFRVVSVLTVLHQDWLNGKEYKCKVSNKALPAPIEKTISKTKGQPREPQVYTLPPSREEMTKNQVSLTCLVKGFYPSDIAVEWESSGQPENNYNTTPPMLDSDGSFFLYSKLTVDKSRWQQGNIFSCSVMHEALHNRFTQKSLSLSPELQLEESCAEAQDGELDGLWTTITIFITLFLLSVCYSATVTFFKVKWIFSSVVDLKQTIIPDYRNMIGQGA

Take “human IgG1 (antibody specific for the receptor binding domain of SARS-CoV-2, clone not named) (from UniProt P01857)”: the dissociation constant Kd is 2.4 nM in assay [1]; 300 nM with human FcRn; 415 nM with mouse CD16-2; 246 nM with mouse CD64; 9.9 nM in assay [2]. Moreover, the koff was 0.00014 s⁻¹ in assay [1]; 0.088 s⁻¹ with human FcRn; 0.0275 s⁻¹ with mouse CD16-2; 0.062 s⁻¹ with mouse CD64; 0.001 s⁻¹ in assay [2].

For “human IgG3 (antibody specific for the receptor binding domain of SARS-CoV-2, clone not named) (from UniProt P01860)”, in assay [1], the Kd worked out at 8.1 nM and the koff was found to be 0.00033 s⁻¹. In the assay with mouse CD64, this substance yielded a Kd of 14 nM and a koff of 0.0014 s⁻¹.
